# Test results from the supplement of paper PMC9112550, “Optimization of the antimicrobial peptide Bac7 by deep mutational scanning” (BMC Biology, 2022).
# System: Escherichia coli TOP10
# Assay: shrunken log2 fold change of peptide-encoding DNA abundance (4.5 h post-induction vs induction); higher = less antimicrobial activity (less host growth inhibition)
# Conditions: time post-induction: 4.5 h; library: site-saturation at positions 5, 18, 19, 20
# 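Further: peptides expressed intracellularly from a pBAD plasmid library in pooled LB shake-flask culture, induced with 0.3% L-arabinose, DNA abundance read by NGS, three biological replicates, DESeq2 with apeglm shrinkage.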
row,Sequence,shrunken log2 fold change
1,RRIRDRPPRLPRPRPRPFCTPRP,-0.0992
2,RRIRCRPPRLPRPRPRPHADPRP,0.145
3,RRIRVRPPRLPRPRPRPWQAPRP,-0.0138
4,RRIRTRPPRLPRPRPRPLYSPRP,-0.575
5,RRIRHRPPRLPRPRPRPHWNPRP,-0.407
6,RRIRQRPPRLPRPRPRPCRYPRP,-0.167
7,RRIRWRPPRLPRPRPRPCLPPRP,-0.341
8,RRIRLRPPRLPRPRPRPLALPRP,-0.438
9,RRIRCRPPRLPRPRPRPRLMPRP,0.174
10,RRIRQRPPRLPRPRPRPGNCPRP,-0.0905
11,RRIRWRPPRLPRPRPRPGVSPRP,0.34
12,RRIRIRPPRLPRPRPRPLEPPRP,0.111
13,RRIRYRPPRLPRPRPRPTYYPRP,-1.21
14,RRIRVRPPRLPRPRPRPYKPPRP,-0.757
15,RRIRQRPPRLPRPRPRPFMFPRP,-0.144
16,RRIRMRPPRLPRPRPRPCVSPRP,-0.0589
17,RRIRCRPPRLPRPRPRPWLHPRP,-0.305
18,RRIRARPPRLPRPRPRPCWHPRP,0.134
19,RRIRGRPPRLPRPRPRPSFYPRP,0.00205
20,RRIRSRPPRLPRPRPRPAANPRP,0.403
21,RRIRNRPPRLPRPRPRPGAKPRP,0.362
22,RRIRQRPPRLPRPRPRPNLWPRP,-0.0933
23,RRIRNRPPRLPRPRPRPKQVPRP,-0.173
24,RRIRERPPRLPRPRPRPYTFPRP,-0.282
25,RRIRMRPPRLPRPRPRPVSIPRP,0.0541

row,Sequence,shrunken log2 fold change
1,RRIRGRPPRLPRPRPRPMVPPRP,0.202
2,RRIRNRPPRLPRPRPRPNEVPRP,-0.0252
3,RRIRYRPPRLPRPRPRPPPNPRP,0.873
4,RRIRTRPPRLPRPRPRPPLPPRP,0.33
5,RRIRFRPPRLPRPRPRPESCPRP,-0.141
6,RRIRGRPPRLPRPRPRPLSNPRP,0.416
7,RRIRGRPPRLPRPRPRPPNEPRP,0.947
8,RRIRLRPPRLPRPRPRPSWRPRP,0.276
9,RRIRGRPPRLPRPRPRPRVYPRP,0.35
10,RRIRFRPPRLPRPRPRPQPVPRP,0.356
11,RRIRHRPPRLPRPRPRPKDIPRP,-0.504
12,RRIRKRPPRLPRPRPRPVNQPRP,-0.145
13,RRIRFRPPRLPRPRPRPWLYPRP,-1.2
14,RRIRQRPPRLPRPRPRPTPHPRP,0.397
15,RRIRNRPPRLPRPRPRPMPMPRP,0.0119
16,RRIRQRPPRLPRPRPRPPCLPRP,-0.192
17,RRIRKRPPRLPRPRPRPQENPRP,0.256
18,RRIRWRPPRLPRPRPRPMYAPRP,0.325
19,RRIRPRPPRLPRPRPRPVEWPRP,0.0458
20,RRIRVRPPRLPRPRPRPLFWPRP,0.139
21,RRIRDRPPRLPRPRPRPAFVPRP,-0.114
22,RRIRPRPPRLPRPRPRPYHEPRP,-0.348
23,RRIRCRPPRLPRPRPRPNLGPRP,-0.283
24,RRIRERPPRLPRPRPRPNKPPRP,-0.0937
25,RRIRMRPPRLPRPRPRPTLTPRP,1.4

row,Sequence,shrunken log2 fold change
1,RRIRFRPPRLPRPRPRPGGYPRP,0.0294
2,RRIRHRPPRLPRPRPRPIIFPRP,-0.249
3,RRIRFRPPRLPRPRPRPVMLPRP,-0.412
4,RRIRDRPPRLPRPRPRPCAVPRP,0.189
5,RRIRFRPPRLPRPRPRPGTWPRP,-0.153
6,RRIRERPPRLPRPRPRPSHTPRP,-0.248
7,RRIRERPPRLPRPRPRPCQFPRP,-0.131
8,RRIRRRPPRLPRPRPRPQCHPRP,-0.0986
9,RRIRQRPPRLPRPRPRPRKRPRP,-0.104
10,RRIRNRPPRLPRPRPRPMCCPRP,-0.406
11,RRIRIRPPRLPRPRPRPNDSPRP,-0.137
12,RRIRTRPPRLPRPRPRPQYPPRP,-0.923
13,RRIRWRPPRLPRPRPRPMLEPRP,-0.0685
14,RRIRYRPPRLPRPRPRPPVIPRP,-0.0623
15,RRIRSRPPRLPRPRPRPRDCPRP,0.686
16,RRIRGRPPRLPRPRPRPLHMPRP,0.379
17,RRIRSRPPRLPRPRPRPVFKPRP,-0.29
18,RRIRARPPRLPRPRPRPCDGPRP,0.146
19,RRIRMRPPRLPRPRPRPDLDPRP,2.65
20,RRIRIRPPRLPRPRPRPRPYPRP,-0.332
21,RRIRTRPPRLPRPRPRPKWCPRP,0.00669
22,RRIRQRPPRLPRPRPRPFQAPRP,-0.207
23,RRIRPRPPRLPRPRPRPMGTPRP,0.0218
24,RRIRHRPPRLPRPRPRPSHDPRP,-0.0756
25,RRIRCRPPRLPRPRPRPLAFPRP,-0.165
